The values below come from patent US20260152552A1 (CURON BIOPHARMACEUTICAL SHANGHAI, published 2026).

B1: anti-L1CAM human-mouse chimeric antibody ch49E10H1 (antibody, V domains shown)
VH: DVQLQESGPGLVKPSQSLSLTCTVTGYSITSDYAWNWIRQFPGNRLEWMGYITYSGTTTYNPSLKSRISITRDTSKNQFFLQLNSVTTADTATYYCTLDHYGNYAYFDYWGQGTTLTVSS
VL: QIVLSQSPAILSASPGEKVTMTCRASSSVSFMHWYQQKPRSSPKPWIYASSNLVSGVPTRFSGSGSGTSYSLTISRVEAEDAATYYCQQWSSNPSTFGAGTKLELK
notes: VH and VL of mouse 49E10H1 with human IgG1 constant regions; The entries as printed seem to begin with a leader peptide
B2: anti-L1CAM human-mouse chimeric antibody ch26A12C1 (antibody, V domains shown)
VH: QVQLQQSGAELAKPGASVKMSCKASGYTFTNYWMQWVKQRPGQGLEWIGYINPSTYYSDYNQKFKDKATLTADKSSSTAFMQLSSLTSEDSAVYYCARRQFGLPLFDYWGQGTTLTLSS
VL: DIVMTQSHKFMSTSVGDRVSITCKASQDVGTAVAWYQQKPGQSPKLLIYWASTRHTGVPDRFTGSGSGTDFTLTISNVQSEDLTDYFCQQYSNYPLTFGAGTELELK
notes: VH and VL of mouse 26A12C1 with human IgG1 constant regions; The entries as printed seem to begin with a leader peptide
B3: anti-L1CAM human-mouse chimeric antibody ch46F1D5 (antibody, V domains shown)
VH: QVQVQQSGAELAKPGASMKMSCKASGYTFTRYWMQWVKQRPGQGLEWIGYINPSTGYTDYNQNFKDKATLTADKSSSTAYMQLSSLTSEDSAVYYCARRHLGLPLFDYWGQGTTLTVSS
VL: DIVMTQSHKFMSTSLGDRVSITCKASQDVGTAVAWYQQKPGQSPKLLIYWASTRHTGVPDRFTGSGSGTDFTLTISNVQSEDLAEYFCQQYSNYPLTFGAGTKLDLK
notes: VH and VL of mouse 46F1D5 with human IgG1 constant regions; The entries as printed seem to begin with a leader peptide
B4: anti-L1CAM human-mouse chimeric antibody ch25F8H8 (antibody, V domains shown)
VH: QVQLQQSGAELAKPGASVKMSCQASGYTFTTYWMHWVKQRPGQGLEWIGYINPSTGYTDYNQKFKDKATLTADKSSSTAYMQLSSLTSEDSAVYYCARRQLGLPLFDYWGQGTTLTVSS
VL: DIVMTQSHKFLSTSVGDRVSITCKASQDVGTAVAWYQHKPGQSPKLLIFWASTRHTGVPDRFTGSGSGTDFTLTISNVQSEDLADYFCQQYSNYPLTFGAGPKLELK
notes: VH and VL of mouse 25F8H8 with human IgG1 constant regions (CH1, CH2, CH3)
B5: anti-L1CAM human-mouse chimeric antibody ch103E9B3 (antibody, V domains shown)
VH: EVQLQQSGPELLKPGASVKISCKASGYTFTSYTMHWVKQSHGKSLEWIGDINPNYGGTSYNEKFKDKATLTVDKSSSTAYMELRSLTSEDSAVYYCAREGATGTWYFDVWGTGTTVTVSS
VL: QIVLTQSPALMSASPGEKVTMTCSASSSVSFMFWYQQKPRSSPKPWIYLTSNLASGVPARFSGSGSGTSYSLTISSMEAEDAATYYCQQWRSNPPTFGAGTKLELK
notes: VH and VL of mouse 103E9B3 with human IgG1 constant regions; The entries as printed seem to begin with a leader peptide
B6: mouse anti-L1CAM monoclonal antibody 49E10H1 (antibody, V domains shown)
VH: DVQLQESGPGLVKPSQSLSLTCTVTGYSITSDYAWNWIRQFPGNRLEWMGYITYSGTTTYNPSLKSRISITRDTSKNQFFLQLNSVTTADTATYYCTLDHYGNYAYFDYWGQGTTLTVSS
VL: QIVLSQSPAILSASPGEKVTMTCRASSSVSFMHWYQQKPRSSPKPWIYASSNLVSGVPTRFSGSGSGTSYSLTISRVEAEDAATYYCQQWSSNPSTFGAGTKLELK
notes: Mouse IgG tested as hybridoma supernatant
B7: mouse anti-L1CAM monoclonal antibody 25F8H8 (antibody, V domains shown)
VH: QVQLQQSGAELAKPGASVKMSCQASGYTFTTYWMHWVKQRPGQGLEWIGYINPSTGYTDYNQKFKDKATLTADKSSSTAYMQLSSLTSEDSAVYYCARRQLGLPLFDYWGQGTTLTVSS
VL: DIVMTQSHKFLSTSVGDRVSITCKASQDVGTAVAWYQHKPGQSPKLLIFWASTRHTGVPDRFTGSGSGTDFTLTISNVQSEDLADYFCQQYSNYPLTFGAGPKLELK
notes: as for B6
B8: mouse anti-L1CAM monoclonal antibody 26A12C1 (antibody, V domains shown)
VH: QVQLQQSGAELAKPGASVKMSCKASGYTFTNYWMQWVKQRPGQGLEWIGYINPSTYYSDYNQKFKDKATLTADKSSSTAFMQLSSLTSEDSAVYYCARRQFGLPLFDYWGQGTTLTLSS
VL: DIVMTQSHKFMSTSVGDRVSITCKASQDVGTAVAWYQQKPGQSPKLLIYWASTRHTGVPDRFTGSGSGTDFTLTISNVQSEDLTDYFCQQYSNYPLTFGAGTELELK
notes: as for B6
B9: mouse anti-L1CAM monoclonal antibody 46F1D5 (antibody, V domains shown)
VH: QVQVQQSGAELAKPGASMKMSCKASGYTFTRYWMQWVKQRPGQGLEWIGYINPSTGYTDYNQNFKDKATLTADKSSSTAYMQLSSLTSEDSAVYYCARRHLGLPLFDYWGQGTTLTVSS
VL: DIVMTQSHKFMSTSLGDRVSITCKASQDVGTAVAWYQQKPGQSPKLLIYWASTRHTGVPDRFTGSGSGTDFTLTISNVQSEDLAEYFCQQYSNYPLTFGAGTKLDLK
notes: as for B6
B10: mouse anti-L1CAM monoclonal antibody 103E9B3 (antibody, V domains shown)
VH: EVQLQQSGPELLKPGASVKISCKASGYTFTSYTMHWVKQSHGKSLEWIGDINPNYGGTSYNEKFKDKATLTVDKSSSTAYMELRSLTSEDSAVYYCAREGATGTWYFDVWGTGTTVTVSS
VL: QIVLTQSPALMSASPGEKVTMTCSASSSVSFMFWYQQKPRSSPKPWIYLTSNLASGVPARFSGSGSGTSYSLTISSMEAEDAATYYCQQWRSNPPTFGAGTKLELK
notes: as for B6

Broadly, the EC50 is the concentration that produces a half-maximal response. Low values mean higher potency in that assay, high ones lower potency in that assay.

T1 sequence (P32004 20-1257): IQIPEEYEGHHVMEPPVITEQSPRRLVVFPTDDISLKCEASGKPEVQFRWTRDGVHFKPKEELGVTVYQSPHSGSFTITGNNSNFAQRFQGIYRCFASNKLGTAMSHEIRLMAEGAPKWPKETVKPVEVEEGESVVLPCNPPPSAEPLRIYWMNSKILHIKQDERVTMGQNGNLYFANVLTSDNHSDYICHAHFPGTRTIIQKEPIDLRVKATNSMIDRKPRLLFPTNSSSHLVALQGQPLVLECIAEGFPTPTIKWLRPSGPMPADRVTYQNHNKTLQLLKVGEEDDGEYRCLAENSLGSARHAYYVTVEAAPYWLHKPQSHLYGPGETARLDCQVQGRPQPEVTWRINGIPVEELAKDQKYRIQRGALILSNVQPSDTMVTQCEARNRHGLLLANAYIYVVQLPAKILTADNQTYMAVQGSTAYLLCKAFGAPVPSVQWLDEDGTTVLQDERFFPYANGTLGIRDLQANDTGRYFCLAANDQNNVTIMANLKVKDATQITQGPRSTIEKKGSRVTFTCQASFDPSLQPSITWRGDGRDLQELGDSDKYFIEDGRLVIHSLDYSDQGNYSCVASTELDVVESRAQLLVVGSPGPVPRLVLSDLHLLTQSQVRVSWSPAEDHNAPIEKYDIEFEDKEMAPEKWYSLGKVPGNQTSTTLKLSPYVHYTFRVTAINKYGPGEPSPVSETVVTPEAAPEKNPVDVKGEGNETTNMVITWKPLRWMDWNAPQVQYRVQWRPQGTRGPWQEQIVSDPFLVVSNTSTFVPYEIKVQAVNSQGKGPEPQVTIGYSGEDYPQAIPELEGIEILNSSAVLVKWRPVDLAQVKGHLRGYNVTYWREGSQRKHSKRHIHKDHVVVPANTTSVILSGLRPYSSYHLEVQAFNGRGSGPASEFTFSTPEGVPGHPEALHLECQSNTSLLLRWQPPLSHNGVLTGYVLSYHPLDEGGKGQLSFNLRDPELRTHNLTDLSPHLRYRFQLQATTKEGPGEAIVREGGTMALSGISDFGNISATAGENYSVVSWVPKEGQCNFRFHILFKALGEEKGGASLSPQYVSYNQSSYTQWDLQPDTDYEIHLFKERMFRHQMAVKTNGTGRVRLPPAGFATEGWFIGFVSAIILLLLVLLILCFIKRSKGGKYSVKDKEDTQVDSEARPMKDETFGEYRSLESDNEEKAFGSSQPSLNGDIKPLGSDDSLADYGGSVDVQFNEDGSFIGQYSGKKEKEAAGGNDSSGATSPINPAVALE

The first assay has as its target T1, human L1CAM (L1 cell adhesion molecule), endogenously expressed on the surface of HeLa cells (human, UniProt P32004 20-1257).
T1 construct: whole, on cells; also called CD171
Description: flow cytometry on HeLa cells (endogenous human L1CAM). On the procedure: This example utilizes HeLa cells and L1CAM-knockout HeLa cells (purchased from Abcam) to determine the binding of mouse anti-L1CAM monoclonal antibodies to endogenously expressed human L1CAM on the cell surface. L1CAM-knockout HeLa cells are referred to as HeLa KO cells in this invention. HeLa cells are cultured in DMEM complete medium (purchased from Corning) containing 10% FBS (purchased from Gibco) and 100 U/mL penicillin mixture (Thermofisher, 15140122). […] Then, the human-mouse chimeric antibodies are serially diluted in DMEM complete medium, with 25 μL of the diluted chimeric antibody solution added to each well, gently mixed, and incubated at 4° C. for 1 hour. Then, 150 μL of PBS buffer containing 2% FBS (purchased from Corning) is added to each well, centrifuged at 1400 rpm for 4 minutes, the supernatant is removed, and the wells are washed once more. Then, 50 μL of Alexa Flour 647-labeled goat anti-human fluorescent secondary antibody (purchased from Jacksonimmuno) diluted 1:800 is added to each well, and the 96-well plate is incubated at 4° C. for 0.5 hours. The cells are washed twice with PBS solution containing 2% FBS, then resuspended in 120 μL of PBS, and the cell surface fluorescence signal is detected using a flow cytometer (BD FACSCelesta), obtaining the median fluorescence intensity (MFI). A dose-response curve is generated, and the half-maximal effective concentration (EC50) is calculated using non-linear regression with GraphPad software.
A general note: In flow cytometry, cells or beads pass a laser one at a time.
As for B1, the response was half-maximal at 0.978 nM (EC50) and the “Maxium MFI” value was found to be 42900 MFI.

On to B2, for which the EC50 turned out to be 0.739 nM and the “Maxium MFI” value amounted to 44700 MFI.

For the molecule B3, the EC50 is 0.845 nM and the “Maxium MFI” value came to 43100 MFI.

Take B4: the midpoint of the response, the EC50, lay at 0.833 nM and the “Maxium MFI” value stood at 29300 MFI.

For B5, a half-maximal response (EC50) required 1.11 nM and the “Maxium MFI” value worked out at 45400 MFI.

A further assay deals with T1, human L1CAM (L1 cell adhesion …). The assay is described as above. This is another data set of the same source. On the procedure: The experimental principle is as follows: HeLa cells express high levels of L1CAM protein on their surface. After incubating humanized L1CAM antibodies with the cells, the binding ability of the antibodies to L1CAM on the surface of HeLa cells can be determined by flow cytometry. The experimental method is descripted as following: Humanized L1CAM antibodies (Human IgG1-Kappa) are diluted in complete medium in a four-fold serial dilution, with seven concentration gradient points. HeLa cells are cultured in DMEM complete medium (Corning, 10-013-CVR) containing 10% FBS (Gibco, 10099-141) and 100 U/mL penicillin mixture (Thermofisher, 15140122). When the cell coverage in the culture container reaches 80-90%, TrypLE (Thermofisher, 12604-013) is used to digest the HeLa cells from the culture container, and they are seeded in a 96-well plate (AXYGEN, P-96-450V-C) at a density of 2.2×10⁶ cells/ml, with 100,000 cells (45 μL complete medium) per well. Then, 5 μL of the antibody dilution is added to each well, gently mixed, and the 96-well plate is incubated at 4° C. for 1 hour. Then, 150 μL of PBS solution containing 2% FBS (Corning, 21-040-CVC) is added to each well, centrifuged at 1400 rpm for 4 minutes, the supernatant is removed, and the wells are washed once more. Then, 50 μL of Alexa Flour 647-labeled goat anti-human fluorescent secondary antibody (Jacksonimmuno, 109-605-088) diluted 1:800 is added to each well, and the 96-well plate is incubated at 4° C. for 0.5 hours. The cells are washed twice with PBS solution containing 2% FBS, then resuspended in 120 μL of PBS, and the cell surface fluorescence signal is detected using a flow cytometer (BD FACS Celesta), obtaining the median fluorescence intensity (MFI). A dose-response curve is generated, and the half-maximal effective concentration (EC50) is calculated using non-linear regression with GraphPad software.
In turn, B5 yielded a concentration for a half-maximal effect (EC50) of 1.21 nM.

The target is the same in the next assay. The experiment in a line: flow cytometry on HeLa cells (endogenous human L1CAM), hybridoma supernatant. The protocol:
HeLa cells used in this example were used to measure the binding of mouse anti-L1CAM monoclonal antibodies to endogenously expressed human L1CAM on the cell surface. HeLa cells were cultured in DMEM complete medium (purchased from Corning) containing 10% FBS (purchased from Gibco) and 100 U/mL penicillin-streptomycin mixture (Thermofisher, 15140122). When the coverage of the cells in the culture container reached to 80-90%, using TrypLE (purchased from Thermofisher) to digest Hela cells from the culture container, and seed them in a 96-well plate (purchased from AXYGEN) at a density of 4×10⁶ cells/ml, with 100,000 cells per well (25 μL DMEM complete culture medium), then add 25 μL of diluted hybridoma supernatant containing antibodies to each well, mix gently, and incubate the 96-well plate at 4° C. for 1 hour. Then add 150 μL of PBS buffer containing 2% FBS (purchased from Corning) to each well, centrifuge at 1400 rpm for 4 minutes, remove the supernatant, and repeat washing once. Then, 50 μL of 1:800 diluted Alexa Flour 647-labeled goat anti-mouse fluorescent secondary antibody (purchased from Jacksonimmuno) was added to each well, and the 96-well plate was incubated at 4° C. for 0.5 hours. The cells were washed twice with PBS solution containing 2% FBS, and then resuspended in 120 μL of PBS. The fluorescence signal on the cell surface was detected using a flow cytometer (BD FACSCelesta) to obtain the median fluorescence intensity (MFI). The antibody-containing hybridoma supernatant was assayed using an anti-mouse ELISA assay to determine the concentration of mouse IgG in the supernatant. Finally, a dose-response curve was generated, and the half effective concentration (EC50) was calculated by nonlinear regression using GraphPad software.
B6 had an EC50 of 0.233 nM.

B7: the EC50 was determined as 0.193 nM.

B8 had an EC50 of 0.241 nM.

For the molecule B9, it took 0.144 nM to reach a half-maximal effect (EC50).

On to B10, for which it took 0.436 nM to reach a half-maximal effect (EC50).
